This test has as its target T1, FLAG-PRMT5 (UniProt O14744 1-637).
T1 construct: PRMT5, wild type; Enriched from HEK293T lysate by one FLAG step; cellular partners such as MEP50 may have come along (surmise); also called FLAG-PRMT5^WT; FLAG-tagged PRMT5; source: HEK293T, transfected, immunopurified on FLAG beads and eluted with FLAG peptide
Put plainly: pull-down; His-FUBP1 (from E. coli) and FLAG-PRMT5 (enriched from HEK293T lysate) in vitro, with the PUBLISH peptide as competitor. As to conditions: both partners purified.

T1 sequence (O14744 whole entry): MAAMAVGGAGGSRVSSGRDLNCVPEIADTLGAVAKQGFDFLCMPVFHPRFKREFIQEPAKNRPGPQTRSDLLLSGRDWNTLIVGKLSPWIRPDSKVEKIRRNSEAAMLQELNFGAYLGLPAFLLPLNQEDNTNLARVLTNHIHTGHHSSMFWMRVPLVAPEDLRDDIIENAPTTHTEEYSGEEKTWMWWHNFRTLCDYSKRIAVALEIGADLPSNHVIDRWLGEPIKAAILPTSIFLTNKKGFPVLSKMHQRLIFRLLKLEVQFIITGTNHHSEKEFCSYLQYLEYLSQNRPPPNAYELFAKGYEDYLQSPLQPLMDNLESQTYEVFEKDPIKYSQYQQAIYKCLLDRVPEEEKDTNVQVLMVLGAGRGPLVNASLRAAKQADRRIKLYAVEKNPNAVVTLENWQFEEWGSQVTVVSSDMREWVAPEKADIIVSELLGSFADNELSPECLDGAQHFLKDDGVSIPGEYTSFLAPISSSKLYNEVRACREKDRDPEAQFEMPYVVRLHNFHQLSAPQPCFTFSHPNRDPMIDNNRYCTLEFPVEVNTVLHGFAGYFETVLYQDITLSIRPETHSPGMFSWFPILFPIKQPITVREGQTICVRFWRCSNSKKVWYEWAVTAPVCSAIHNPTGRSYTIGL

B1: PRMT5-mediated FUBP1 methylation abolishing (PUBLISH) peptide (peptide, UniProt Q96AE4 353-367, looked up)
peptide: GPGPGGRGRGRGQGN
notes: FUBP1 amino acids 353-367, with R359/R361/R363; For cells it was delivered as BPAE/peptide nanocomplexes; also called PUBLISH^WT; source: synthetic peptide
For the molecule B1, the binding result was “binds”.

The values above are taken from paper PMC11405040, “PRMT5-mediated FUBP1 methylation accelerates prostate cancer progression” (The Journal of Clinical Investigation, 2024).
